These results are taken from patent US20240018263A1.

Experiment [1] concerns the target VH-9.7 antigen on human patient-derived glioblastoma stem-like cells (GSC lines 12.1, 22, 33, 44, 99). The experiment is described as follows: flow cytometry titration of monomeric VH-9.7 on live 33 GSC, one-site equilibrium fit, four independent titrations. A general note: Flow cytometry measures light scatter and fluorescence of single cells or particles in a stream.

Experiment [2] shares this target. As to the kind of experiment: flow cytometry on cells dissociated from 44 GSC orthotopic xenografts, 125 nM predimerized VH-9.7.

B1: VH-9.7-CMYC-HIS6 (soluble, purified single domain antibody VH-9.7) (antibody, V domains shown)
VH: QVQLVESEAEVKKPGASVKVSCKASGYSFTNYYMHWVRQAPGQGLEWMGLIDPSGTSTTYAQKFQGRVTMTRDTSASTVYMELTSLRSEDTAMYYCVGEESGSGSFSDWGQGTLVTVSS
For orientation: Kd means a measure of binding affinity in units of concentration. In turn, B1 had an equilibrium dissociation constant (Kd) in experiment [1] of 74.3 nM. The same molecule returned a percent of cells labelled in experiment [2] of 17.9%.
